Data set [1] concerns the target T1, human alpha-thrombin (Homo sapiens, UniProt P00734;P00734 328-363;364-622). Put plainly: EMSA; EMSA: 1x binding buffer (PBSMT pH 7.2: 137 mM NaCl, 2.68 mM KCl, 8.1 mM Na2HPO4, 1.76 mM KH2PO4, 1 mM MgCl2, 0.025% Tween-20), <50 pM 32P-DNA, 30 min; gel 10% n. On the technique in general: In EMSA bound probe runs differently from free probe, usually more slowly.
For data set [2], the target named is alpha-thrombin (light; heavy chain) (Homo sapiens (Human), UniProt P00734;P00734 328-363;364-622, N-glycosylated (plasma); interchain disulfide). Put plainly: EMSA; PBS pH 7.2, 1 mM MgCl2, 0.025% Tween-20; DNA <50 pM. Conditions: copies: 1;1; label: 32P.
For data set [3], the target named is T1, human alpha-thrombin. Put plainly: competition; displaces 32P-CTBA4T (500 pM, thrombin 50 pM) at high concentration; exosite I; EMSA: 1x binding buffer (PBSMT pH 7.2: 137 mM NaCl, 2.68 mM KCl, 8.1 mM Na2HPO4, 1.76 mM KH2PO4, 1 mM MgCl2, 0.025% Tween-20), <50 pM 32P-DNA, 30 min; gel 10% n.

Consider four molecules from PMC7641760, “Evolution of a highly functional circular DNA aptamer in serum”.

Broadly, the Kd is a measure of binding affinity in units of concentration.

B1: CTBA4T (structured_DNA)
DNA: ATCTCGACTAGTCATAGGGGGCGCGAACATACGCGGTTGGTGTGGTTGGCTGACAATACTCGT
modifications: circular (5'-3' ligated)
B1: in the data set with human alpha-thrombin [1], the Kd is 23 pM.

B2: CTBA4T (structured_DNA)
DNA: ATCTCGACTAGTCATAGGGGGCGCGAACATACGCGGTTGGTGTGGTTGGCTGACAATACTCGT
modifications: circular (3'-5' ligated)
On to B2, for which the Kd in data set [2] amounted to 23 pM.

In the case of GGTTGGTGTGGTTGG (structured_DNA) [TBA15], in the data set with human alpha-thrombin [3], the binding result is reported as “binds”.

B3: CTBA4T-B1 (structured_DNA)
DNA: ATCTCGAGTCATAGGGGGCGCGAACATACGCGGTTGGTGTGGTTGGCTGACTCGT
modifications: circular (5'-3' ligated)
With B3, the Kd in the data set with human alpha-thrombin [1] was found to be 19 pM.
